Test results from US20100048462A1, “TRUNCATED PTH PEPTIDES WITH A CYCLIC CONFORMATION” (Zealand Pharma A/S, priority 2006, published 2010).
Bridge positions count the residues as written; N and C are the ends. Square brackets hold non-standard residues; d marks the D form. Peptide text beside a SMILES is read from it. hArg = N=C(N)NCCCC[C@H](N)C(=O)O; Ac5c = NC1(C(=O)O)CCCC1; Dab = NCC[C@H](N)C(=O)O; Abu = CC[C@H](N)C(=O)O; Aib = CC(C)(N)C(=O)O

What was measured:
Saos-2 PTH1R [1] = target: T1, Saos-2 PTH1R (Homo sapiens, UniProt Q03431); assay: cAMP-efficacy assay in Saos-2 cells; assay type: cell-based
T1 construct: endogenous in cells; host or cells: Saos-2
T1 sequence (Q03431 27-593): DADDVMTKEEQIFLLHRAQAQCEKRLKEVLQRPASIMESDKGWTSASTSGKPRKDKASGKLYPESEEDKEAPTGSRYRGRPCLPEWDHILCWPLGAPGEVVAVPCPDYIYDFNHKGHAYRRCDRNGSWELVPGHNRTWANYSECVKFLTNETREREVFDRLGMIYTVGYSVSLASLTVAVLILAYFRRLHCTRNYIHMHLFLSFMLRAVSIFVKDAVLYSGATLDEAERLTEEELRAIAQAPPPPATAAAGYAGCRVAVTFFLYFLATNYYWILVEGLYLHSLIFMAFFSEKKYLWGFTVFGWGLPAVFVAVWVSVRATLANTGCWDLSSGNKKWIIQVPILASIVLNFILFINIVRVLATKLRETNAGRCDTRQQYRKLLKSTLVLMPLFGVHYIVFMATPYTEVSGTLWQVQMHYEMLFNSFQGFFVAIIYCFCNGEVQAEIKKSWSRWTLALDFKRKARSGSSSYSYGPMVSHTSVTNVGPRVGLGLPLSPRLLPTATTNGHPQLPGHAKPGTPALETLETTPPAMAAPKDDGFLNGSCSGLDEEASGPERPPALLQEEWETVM
Outline: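 Saos-2 cells, grown two days after seeding at 50,000 cells/well, were exposed to peptide for 15 min at 37 °C in Tyrode's buffer with 0.1% BSA and 100 μM IBMX. After stopping with cold HCl, cAMP was measured by radioimmunoassay FlashPlate. EC50, pEC50, Hill slope and Emax came from a four-parameter sigmoidal fit.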

CYP2D6 = CYP2D6 (Homo sapiens, UniProt P10635); assay: CYP2D6 inhibition in pooled human liver microsomes; assay type: in vitro ADME; design: Pooled human liver microsomes (HLM, final concentration 0.05 mg protein/mL); tissue BD Biosciences 452161; host or cells: pooled human liver microsomes; conditions: 10 μM compound, dextrorphan formation rate
Description: Stock solutions of the test compounds (1 mM) were prepared in 50% isopropanol or 20% DMSO. Pooled human liver microsomes (HLM, final concentration 0.05 mg protein/mL) were mixed with phosphate buffer (0.1 M potassium phosphate, pH 7.4), CYP2D6 substrate (dextrometrorphan, 5 μM final concentration) and test compound (10 μM), quinidine (0.5 μM) or vehicle (0.2% DMSO or 0.5% isopropanol). The mixture was preincubated for 5 min at 37° C. prior to initiation of the reaction addition of a NADPH regenerating mixture (Final concentration: 1.25 mM NADP^+, 3.3 mM Glucose-6-phosphate, 3.3 mM MgCL2 and 0.4 U/mL glucose-6-phosphat dehydrogenase). After 5 minutes the reaction was stopped by addition of 0.25 volume stop reagent (94% acetonitrile, 6% acetic acid). Each experiment was performed in duplicate or triplicate.
The quantification of CYP2D6 product (dextrorphan) was performed by LC/MS/MS. After centrifugation for 5 min at 10.000 g, 40 μL of the supernatant was injected onto a C8 RP-HPLC column (XterraMS, C8, […], 50×2.1 mm). Dextrorphan was eluted by a linear gradient from 0 to 90% acetonitrile in 0.1% formic acid over 4 min using a flow rate of 0.15 ml/min. The concentration of dextrorphan in the reaction mixture was estimated from the peak area of the MS/MS transition (m/z 258.1>199) using an external calibration curve (Table 8).
The CYP2D6 activity in HLM was calculated as the metabolite formation rate: […]
Where, v is the formation rate, [metabolite] is the detected concentration of dextrorphan (pmol/mL) at the time (t, min) and [protein] is the protein concentration (mg/mL) in the reaction mixture. The influence of the test compounds on the CYP2D6 activity was calculated as % of the activity measured when incubated with the vehicle. The effect of CYP2D6 inhibitor (quinidine) was included as inhibition control within each batch analysis. A reduction in CYP2D6 activity to less than 70% of the vehicle control was considered significant.

Saos-2 PTH1R [2] = target: Saos-2 PTH1R (UniProt Q03431); assay: cell-based or functional assay

CYP2D6, sequence (P10635 whole entry): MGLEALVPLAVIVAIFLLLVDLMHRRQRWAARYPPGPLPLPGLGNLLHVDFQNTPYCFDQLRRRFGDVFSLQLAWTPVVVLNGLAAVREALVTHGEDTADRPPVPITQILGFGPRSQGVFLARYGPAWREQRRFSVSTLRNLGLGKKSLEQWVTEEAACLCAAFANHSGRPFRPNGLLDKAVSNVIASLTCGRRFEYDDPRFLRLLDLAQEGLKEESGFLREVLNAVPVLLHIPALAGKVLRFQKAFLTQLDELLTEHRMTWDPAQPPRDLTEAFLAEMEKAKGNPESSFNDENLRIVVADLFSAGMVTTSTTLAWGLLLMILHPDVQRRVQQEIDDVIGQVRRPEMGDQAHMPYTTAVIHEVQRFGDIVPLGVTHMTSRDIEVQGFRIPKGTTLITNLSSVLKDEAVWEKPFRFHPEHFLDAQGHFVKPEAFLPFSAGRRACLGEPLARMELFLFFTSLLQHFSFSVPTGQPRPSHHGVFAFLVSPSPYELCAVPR

## CC[C@H](C)[C@H](NC(=O)[C@H](CCC(=O)O)NC(=O)C(C)(C)NC(=O)[C@@H](NC(=O)C1(N)CCCC1)C(C)C)C(=O)N[C@@H](CCC(N)=O)C(=O)N[C@@H](CC(C)C)C(=O)N[C@@H](CC(C)C)C(=O)N[C@@H](Cc1c[nH]cn1)C(=O)N[C@@H](CCC(N)=O)C(=O)N[C@@H](CCCCNC(=N)N)C(=O)N[C@@H](C)C(=O)N[C@H]1CCNC(=O)C[C@@H](C(N)=O)NC(=O)[C@H](CC(N)=O)NC(=O)[C@H](CC(C)C)NC(=O)[C@H](Cc2c[nH]c3ccccc23)NC1=O [SEQ ID NO: 41, H-Ac5c-Val-Aib-Glu-Ile-Gln-Leu-Leu-His-Gln-Har-Ala-Dab( )-Trp-Leu-Asn-Asp( )-NH2] (H-[Ac5c]V[Aib]EIQLLHQ[hArg]A[Dab]WLND-NH2; lactam 13-17 (inferred))
Saos-2 PTH1R [1]; cAMP, 100 μM IBMX, 37° C. 15 min, suffix of label = salt tested
  EC50: 64.6 nM
Saos-2 PTH1R [1]; relative effect to the control (SEQ ID NO: 32)
  Emax ± SEM: 0.99 ± 0.02
CYP2D6
  CYP2D6 activity (% of vehicle): 82 % of vehicle

B1: H-Aib-Val-Ac5c-Glu-Ile-Gln-Leu-Leu-His-Gln-Har-Ala-Lys( )-Trp-Leu-Asn-Asp( )-NH2 (peptide)
chain: H-[Aib]V[Ac5c]EIQLLHQ[hArg]AKWLND-NH2
modifications: lactam 13-17
SMILES: CC[C@H](C)[C@H](NC(=O)[C@H](CCC(=O)O)NC(=O)C1(NC(=O)[C@@H](NC(=O)C(C)(C)N)C(C)C)CCCC1)C(=O)N[C@@H](CCC(N)=O)C(=O)N[C@@H](CC(C)C)C(=O)N[C@@H](CC(C)C)C(=O)N[C@@H](Cc1c[nH]cn1)C(=O)N[C@@H](CCC(N)=O)C(=O)N[C@@H](CCCCNC(=N)N)C(=O)N[C@@H](C)C(=O)N[C@H]1CCCCNC(=O)C[C@@H](C(N)=O)NC(=O)[C@H](CC(N)=O)NC(=O)[C@H](CC(C)C)NC(=O)[C@H](Cc2c[nH]c3ccccc23)NC1=O
Saos-2 PTH1R [2]
  Emax, cAMP efficacy assay in Saos-2 cells (13T, trifluoroacetate salt) (relative to control (SEQ ID NO: 32)): 0.96
  pEC50, cAMP efficacy assay in Saos-2 cells (13T, trifluoroacetate salt): 7.27 -log(M)

B2: H-Ac5c-Val-Aib-Glu-Ile-Gln-Leu-Met-His-Gln-Har-Ala-Lys( )-Trp-Leu-Asp-Asp( )-NH2 (peptide)
chain: H-[Ac5c]V[Aib]EIQLMHQ[hArg]AKWLDD-NH2
modifications: lactam 13-17
SMILES: CC[C@H](C)[C@H](NC(=O)[C@H](CCC(=O)O)NC(=O)C(C)(C)NC(=O)[C@@H](NC(=O)C1(N)CCCC1)C(C)C)C(=O)N[C@@H](CCC(N)=O)C(=O)N[C@@H](CC(C)C)C(=O)N[C@@H](CCSC)C(=O)N[C@@H](Cc1c[nH]cn1)C(=O)N[C@@H](CCC(N)=O)C(=O)N[C@@H](CCCCNC(=N)N)C(=O)N[C@@H](C)C(=O)N[C@H]1CCCCNC(=O)C[C@@H](C(N)=O)NC(=O)[C@H](CC(=O)O)NC(=O)[C@H](CC(C)C)NC(=O)[C@H](Cc2c[nH]c3ccccc23)NC1=O
Saos-2 PTH1R [2]
  Emax, cAMP efficacy assay in Saos-2 cells (23T, trifluoroacetate salt) (relative to control (SEQ ID NO: 32)): 1.16
  pEC50, cAMP efficacy assay in Saos-2 cells (23T, trifluoroacetate salt): 7.48 -log(M)

B3: H-Ac5c-Val-Abu-Glu-Ile-Gln-Leu-Leu-His-Gln-Har-Ala-Lys( )-Trp-Leu-Asn-Asp( )-NH2 (peptide)
chain: H-[Ac5c]V[Abu]EIQLLHQ[hArg]AKWLND-NH2
modifications: lactam 13-17
SMILES: CC[C@H](NC(=O)[C@@H](NC(=O)C1(N)CCCC1)C(C)C)C(=O)N[C@@H](CCC(=O)O)C(=O)N[C@H](C(=O)N[C@@H](CCC(N)=O)C(=O)N[C@@H](CC(C)C)C(=O)N[C@@H](CC(C)C)C(=O)N[C@@H](Cc1c[nH]cn1)C(=O)N[C@@H](CCC(N)=O)C(=O)N[C@@H](CCCCNC(=N)N)C(=O)N[C@@H](C)C(=O)N[C@H]1CCCCNC(=O)C[C@@H](C(N)=O)NC(=O)[C@H](CC(N)=O)NC(=O)[C@H](CC(C)C)NC(=O)[C@H](Cc2c[nH]c3ccccc23)NC1=O)[C@@H](C)CC
Saos-2 PTH1R [2]
  Emax, cAMP efficacy assay in Saos-2 cells (15T, trifluoroacetate salt) (relative to control (SEQ ID NO: 32)): 1.04
  pEC50, cAMP efficacy assay in Saos-2 cells (15T, trifluoroacetate salt): 7.22 -log(M)

B4: H-Ac5c-Val-Aib-Glu-Ile-Glu-Leu-Leu-His-Gln-Har-Ala-Lys( )-Trp-Leu-Asn-Asp( )-NH2 (peptide)
chain: H-[Ac5c]V[Aib]EIELLHQ[hArg]AKWLND-NH2
modifications: lactam 13-17
SMILES: CC[C@H](C)[C@H](NC(=O)[C@H](CCC(=O)O)NC(=O)C(C)(C)NC(=O)[C@@H](NC(=O)C1(N)CCCC1)C(C)C)C(=O)N[C@@H](CCC(=O)O)C(=O)N[C@@H](CC(C)C)C(=O)N[C@@H](CC(C)C)C(=O)N[C@@H](Cc1c[nH]cn1)C(=O)N[C@@H](CCC(N)=O)C(=O)N[C@@H](CCCCNC(=N)N)C(=O)N[C@@H](C)C(=O)N[C@H]1CCCCNC(=O)C[C@@H](C(N)=O)NC(=O)[C@H](CC(N)=O)NC(=O)[C@H](CC(C)C)NC(=O)[C@H](Cc2c[nH]c3ccccc23)NC1=O
Saos-2 PTH1R [2]
  Emax, cAMP efficacy assay in Saos-2 cells (29T, trifluoroacetate salt) (relative to control (SEQ ID NO: 32)): 1.27
  pEC50, cAMP efficacy assay in Saos-2 cells (29T, trifluoroacetate salt): 6.95 -log(M)

B5: H-Ac5c-Val-Aib-Glu-Ile-Gln-Phe-Leu-His-Gln-Har-Ala-Lys( )-Trp-Leu-Asn-Asp( )-NH2 (peptide)
chain: H-[Ac5c]V[Aib]EIQFLHQ[hArg]AKWLND-NH2
modifications: lactam 13-17
SMILES: CC[C@H](C)[C@H](NC(=O)[C@H](CCC(=O)O)NC(=O)C(C)(C)NC(=O)[C@@H](NC(=O)C1(N)CCCC1)C(C)C)C(=O)N[C@@H](CCC(N)=O)C(=O)N[C@@H](Cc1ccccc1)C(=O)N[C@@H](CC(C)C)C(=O)N[C@@H](Cc1c[nH]cn1)C(=O)N[C@@H](CCC(N)=O)C(=O)N[C@@H](CCCCNC(=N)N)C(=O)N[C@@H](C)C(=O)N[C@H]1CCCCNC(=O)C[C@@H](C(N)=O)NC(=O)[C@H](CC(N)=O)NC(=O)[C@H](CC(C)C)NC(=O)[C@H](Cc2c[nH]c3ccccc23)NC1=O
Saos-2 PTH1R [2]
  Emax, cAMP efficacy assay in Saos-2 cells (27T, trifluoroacetate salt) (relative to control (SEQ ID NO: 32)): 0.92
  pEC50, cAMP efficacy assay in Saos-2 cells (27T, trifluoroacetate salt): 7.91 -log(M)

B6: H-Abu-Val-Aib-Glu-Ile-Gln-Leu-Leu-His-Gln-Har-Ala-Lys( )-Trp-Leu-Asn-Asp( )-NH2 (peptide)
chain: H-[Abu]V[Aib]EIQLLHQ[hArg]AKWLND-NH2
modifications: lactam 13-17
SMILES: CC[C@H](N)C(=O)N[C@H](C(=O)NC(C)(C)C(=O)N[C@@H](CCC(=O)O)C(=O)N[C@H](C(=O)N[C@@H](CCC(N)=O)C(=O)N[C@@H](CC(C)C)C(=O)N[C@@H](CC(C)C)C(=O)N[C@@H](Cc1c[nH]cn1)C(=O)N[C@@H](CCC(N)=O)C(=O)N[C@@H](CCCCNC(=N)N)C(=O)N[C@@H](C)C(=O)N[C@H]1CCCCNC(=O)C[C@@H](C(N)=O)NC(=O)[C@H](CC(N)=O)NC(=O)[C@H](CC(C)C)NC(=O)[C@H](Cc2c[nH]c3ccccc23)NC1=O)[C@@H](C)CC)C(C)C
Saos-2 PTH1R [2]
  Emax, cAMP efficacy assay in Saos-2 cells (11T, trifluoroacetate salt) (relative to control (SEQ ID NO: 32)): 1.04
  pEC50, cAMP efficacy assay in Saos-2 cells (11T, trifluoroacetate salt): 7.17 -log(M)

B7: H-Ac5c-Val-Aib-Glu-Ile-Gln-Leu-Met-His-Gln-Arg-Ala-Lys( )-Trp-Leu-Asn-Asp( )-NH2 (peptide)
chain: H-[Ac5c]V[Aib]EIQLMHQRAKWLND-NH2
modifications: lactam 13-17
SMILES: CC[C@H](C)[C@H](NC(=O)[C@H](CCC(=O)O)NC(=O)C(C)(C)NC(=O)[C@@H](NC(=O)C1(N)CCCC1)C(C)C)C(=O)N[C@@H](CCC(N)=O)C(=O)N[C@@H](CC(C)C)C(=O)N[C@@H](CCSC)C(=O)N[C@@H](Cc1c[nH]cn1)C(=O)N[C@@H](CCC(N)=O)C(=O)N[C@@H](CCCNC(=N)N)C(=O)N[C@@H](C)C(=O)N[C@H]1CCCCNC(=O)C[C@@H](C(N)=O)NC(=O)[C@H](CC(N)=O)NC(=O)[C@H](CC(C)C)NC(=O)[C@H](Cc2c[nH]c3ccccc23)NC1=O
Saos-2 PTH1R [2]
  Emax, cAMP efficacy assay in Saos-2 cells (25T, trifluoroacetate salt) (relative to control (SEQ ID NO: 32)): 1.04
  pEC50, cAMP efficacy assay in Saos-2 cells (25T, trifluoroacetate salt): 8.05 -log(M)
